Drawing on article doi:10.1101/2025.09.11.675605, this text covers stoichiometry N (eGFP molecules per nanocompartment), stoichiometry N (tdCD molecules per nanocompartment) and fold MFI elevation for three substances.

For assay [1], the target named is encapsulin (MSMEI_5672) from Mycobacterium smegmatis mc^2155 with C-terminal Strep-tag (Mycobacterium smegmatis mc^2155). The assay is described as follows: AF4-MALS.
Assay [2] addresses Human Epidermal Growth Factor Receptor 2 (human (endogenous in SKOV-3)) (UniProt P04626). The assay is described as follows: flow cytometry on cells. On the technique in general: A flow cytometer gives signals particle by particle.

As for “eGFP with C-terminal encapsulin localization sequence”, in assay [1], the stoichiometry N (eGFP molecules per nanocompartment) is 17.
Substance “tandem cytosine deaminase with C-terminal encapsulin localization sequence (enzyme)” displayed a stoichiometry N (tdCD molecules per nanocompartment) in assay [1] of 18.7.
Substance “^ZHEREnc{eGFP}: encapsulin nanocompartment with ZHER_(2:342) affibody-decorated shell, loaded with eGFP (complex)” gave a fold MFI elevation in assay [2] of 62 fold.
